Laboratory results as given in article PMC12402178 (2025).

Tests used:
[1] = target: T1, microtubules polymerised from porcine brain tubulin (GMPCPP-stabilised seeds, dynamic GDP lattice, or … (porcine, UniProt P02550 1-451, part of the tubulin labelled with Rhodamine or HiLyte 647)); part biotinylated (surface-immobilised microtubules) | part of the tubulin labelled with Rhodamine or HiLyte 647; part biotinylated …); test: FRAP, microtubule-microtubule overlap (median)
[2] = target: T1, microtubules polymerised from porcine …; test: FRAP, actin-microtubule overlap (median), with actin filaments

T1 sequence (P02550 whole entry, chain 1 of 2): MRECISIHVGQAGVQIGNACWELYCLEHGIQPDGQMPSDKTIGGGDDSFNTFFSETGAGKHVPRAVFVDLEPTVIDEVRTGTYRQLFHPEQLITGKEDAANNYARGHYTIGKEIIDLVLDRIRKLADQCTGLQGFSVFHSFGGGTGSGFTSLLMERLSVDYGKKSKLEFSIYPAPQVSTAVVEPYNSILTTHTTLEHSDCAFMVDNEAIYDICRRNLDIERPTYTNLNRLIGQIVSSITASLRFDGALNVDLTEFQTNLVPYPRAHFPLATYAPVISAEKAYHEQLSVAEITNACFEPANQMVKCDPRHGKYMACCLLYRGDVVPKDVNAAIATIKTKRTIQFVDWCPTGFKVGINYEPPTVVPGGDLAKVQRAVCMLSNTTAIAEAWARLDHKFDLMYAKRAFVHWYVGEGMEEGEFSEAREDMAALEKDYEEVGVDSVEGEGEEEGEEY
T1 sequence (chain, as listed by the source, chain 2 of 2): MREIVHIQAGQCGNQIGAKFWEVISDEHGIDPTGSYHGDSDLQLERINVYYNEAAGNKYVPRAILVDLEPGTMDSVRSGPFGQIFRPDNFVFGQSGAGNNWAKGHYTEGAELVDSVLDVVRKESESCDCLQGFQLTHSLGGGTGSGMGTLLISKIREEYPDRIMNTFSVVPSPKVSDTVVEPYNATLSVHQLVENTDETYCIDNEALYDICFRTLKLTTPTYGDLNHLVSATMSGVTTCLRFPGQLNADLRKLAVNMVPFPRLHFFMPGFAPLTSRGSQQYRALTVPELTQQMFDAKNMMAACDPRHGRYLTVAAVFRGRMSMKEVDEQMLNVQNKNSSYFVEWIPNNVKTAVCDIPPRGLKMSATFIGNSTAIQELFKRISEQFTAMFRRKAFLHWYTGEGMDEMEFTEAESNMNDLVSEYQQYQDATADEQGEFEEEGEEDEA

B1: Anillin-GFP (full-length human anillin, isoform 2, 1087 amino acids) (natural protein)
chain: MDPFTEKLLERTRARRENLQRKMAERPTAAPRSMTHAKRARQPLSEASNQQPLSGGEEKSCTKPSPSKKRCSDNTEVEVSNLENKQPVESTSAKSCSPSPVSPQVQPQAADTISDSVAVPASLLGMRRGLNSRLEATAASSVKTRMQKLAEQRRRWDNDDMTDDIPESSLFSPMPSEEKAASPPRPLLSNASATPVGRRGRLANLAATICSWEDDVNHSFAKQNSVQEQPGTACLSKFSSASGASARINSSSVKQEATFCSQRDGDASLNKALSSSADDASLVNASISSSVKATSPVKSTTSITDAKSCEGQNPELLPKTPISPLKTGVSKPIVKSTLSQTVPSKGELSREICLQSQSKDKSTTPGGTGIKPFLERFGERCQEHSKESPARSTPHRTPIITPNTKAIQERLFKQDTSSSTTHLAQQLKQERQKELACLRGRFDKGNIWSAEKGGNSKSKQLETKQETHCQSTPLKKHQGVSKTQSLPVTEKVTENQIPAKNSSTEPKEVIREIEMSVDDDDINSSKVINDLFSDVLEEGELDMEKSQEEMDQALAESSEEQEDALNISSMSLLAPLAQTVGVVSPESLVSTPRLELKDTSRSDESPKPGKFQRTRVPRAESGDSLGSEDRDLLYSIDAYRSQRFKETERPSIKQVIVRKEDVTSKLDEKNNAFPCQVNIKQKMQELNNEINMQQTVIYQASQALNCCVDEEHGKGSLEEAEAERLLLIATGKRTLLIDELNKLKNEGPQRKNKASPQSEFMPSKGSVTLSEIRLPLKADFVCSTVQKPDAANYYYLIILKAGAENMVATPLASTSNSLNGDALTFTTTFTLQDVSNDFEINIEVYSLVQKKDPSGLDKKKKTSKSKAITPKRLLTSITTKSNIHSSVMASPGGLSAVRTSNFALVGSYTLSLSSVGNTKFVLDKVPFLSSLEGHIYLKIKCQVNSSVEERGFLTIFEDVSGFGAWHRRWCVLSGNCISYWTYPDDEKRKNPIGRINLANCTSRQIEPANREFCARRNTFELITVRPQREDDRETLVSQCRDTLCVTKNWLSADTKEERDLWMQKLNQVLVDIRLWQPDACYKPIGKP
koff [1]: 0.29 s⁻¹ | koff [2]: 0.513 s⁻¹
